The text below walks through data of patent US20150087577A1 (POLYPHOR, published 2015).

B1: Example 54 (peptide)
peptide: cyclo(YR[Cit]CRG[dP]YR[2Nal]CYQK[dP]P)
modifications: disulfide 4-11
SMILES: N=C(N)NCCC[C@@H]1NC(=O)[C@@H]2CSSC[C@H](NC(=O)[C@H](Cc3ccc4ccccc4c3)NC(=O)[C@H](CCCNC(=N)N)NC(=O)[C@H](Cc3ccc(O)cc3)NC(=O)[C@H]3CCCN3C(=O)CNC1=O)C(=O)N[C@@H](Cc1ccc(O)cc1)C(=O)N[C@@H](CCC(N)=O)C(=O)N[C@@H](CCCCN)C(=O)N1CCC[C@@H]1C(=O)N1CCC[C@H]1C(=O)N[C@@H](Cc1ccc(O)cc1)C(=O)N[C@@H](CCCNC(=N)N)C(=O)N[C@@H](CCCNC(N)=O)C(=O)N2
B2: Example 58 (peptide)
peptide: cyclo(YR[Cit]CRG[dP]RR[2Nal]CYHK[dP]P)
modifications: disulfide 4-11
SMILES: N=C(N)NCCC[C@@H]1NC(=O)[C@@H]2CSSC[C@H](NC(=O)[C@H](Cc3ccc4ccccc4c3)NC(=O)[C@H](CCCNC(=N)N)NC(=O)[C@H](CCCNC(=N)N)NC(=O)[C@H]3CCCN3C(=O)CNC1=O)C(=O)N[C@@H](Cc1ccc(O)cc1)C(=O)N[C@@H](Cc1c[nH]cn1)C(=O)N[C@@H](CCCCN)C(=O)N1CCC[C@@H]1C(=O)N1CCC[C@H]1C(=O)N[C@@H](Cc1ccc(O)cc1)C(=O)N[C@@H](CCCNC(=N)N)C(=O)N[C@@H](CCCNC(N)=O)C(=O)N2
B3: Example 61 (peptide)
peptide: cyclo(YR[Cit]CRG[dP]RR[2Nal]CYQE[dP]P)
modifications: disulfide 4-11
SMILES: N=C(N)NCCC[C@@H]1NC(=O)[C@@H]2CSSC[C@H](NC(=O)[C@H](Cc3ccc4ccccc4c3)NC(=O)[C@H](CCCNC(=N)N)NC(=O)[C@H](CCCNC(=N)N)NC(=O)[C@H]3CCCN3C(=O)CNC1=O)C(=O)N[C@@H](Cc1ccc(O)cc1)C(=O)N[C@@H](CCC(N)=O)C(=O)N[C@@H](CCC(=O)O)C(=O)N1CCC[C@@H]1C(=O)N1CCC[C@H]1C(=O)N[C@@H](Cc1ccc(O)cc1)C(=O)N[C@@H](CCCNC(=N)N)C(=O)N[C@@H](CCCNC(N)=O)C(=O)N2
B4: Example 63 (peptide)
peptide: cyclo(RR[Cit]CRG[dP]RR[2Nal]CYQK[dP]P)
modifications: disulfide 4-11
SMILES: N=C(N)NCCC[C@@H]1NC(=O)[C@@H]2CSSC[C@H](NC(=O)[C@H](Cc3ccc4ccccc4c3)NC(=O)[C@H](CCCNC(=N)N)NC(=O)[C@H](CCCNC(=N)N)NC(=O)[C@H]3CCCN3C(=O)CNC1=O)C(=O)N[C@@H](Cc1ccc(O)cc1)C(=O)N[C@@H](CCC(N)=O)C(=O)N[C@@H](CCCCN)C(=O)N1CCC[C@@H]1C(=O)N1CCC[C@H]1C(=O)N[C@@H](CCCNC(=N)N)C(=O)N[C@@H](CCCNC(=N)N)C(=O)N[C@@H](CCCNC(N)=O)C(=O)N2
B5: Example 53 (peptide)
peptide: cyclo(YR[Cit]CRVGRR[2Nal]CY[Cit]K[dP]P)
modifications: disulfide 4-11
SMILES: CC(C)[C@@H]1NC(=O)[C@H](CCCNC(=N)N)NC(=O)[C@@H]2CSSC[C@H](NC(=O)[C@H](Cc3ccc4ccccc4c3)NC(=O)[C@H](CCCNC(=N)N)NC(=O)[C@H](CCCNC(=N)N)NC(=O)CNC1=O)C(=O)N[C@@H](Cc1ccc(O)cc1)C(=O)N[C@@H](CCCNC(N)=O)C(=O)N[C@@H](CCCCN)C(=O)N1CCC[C@@H]1C(=O)N1CCC[C@H]1C(=O)N[C@@H](Cc1ccc(O)cc1)C(=O)N[C@@H](CCCNC(=N)N)C(=O)N[C@@H](CCCNC(N)=O)C(=O)N2
B6: Example 60 (peptide)
peptide: cyclo(YR[Cit]CRG[dP]RR[2Nal]CYQQ[dP]P)
modifications: disulfide 4-11
SMILES: N=C(N)NCCC[C@@H]1NC(=O)[C@@H]2CSSC[C@H](NC(=O)[C@H](Cc3ccc4ccccc4c3)NC(=O)[C@H](CCCNC(=N)N)NC(=O)[C@H](CCCNC(=N)N)NC(=O)[C@H]3CCCN3C(=O)CNC1=O)C(=O)N[C@@H](Cc1ccc(O)cc1)C(=O)N[C@@H](CCC(N)=O)C(=O)N[C@@H](CCC(N)=O)C(=O)N1CCC[C@@H]1C(=O)N1CCC[C@H]1C(=O)N[C@@H](Cc1ccc(O)cc1)C(=O)N[C@@H](CCCNC(=N)N)C(=O)N[C@@H](CCCNC(N)=O)C(=O)N2
B7: Example 38 (peptide)
peptide: cyclo(YR[Cit]FRG[dP]RR[2Nal]FY[Cit]K[dP]P)
SMILES: N=C(N)NCCC[C@@H]1NC(=O)[C@H](Cc2ccccc2)NC(=O)[C@H](CCCNC(N)=O)NC(=O)[C@H](CCCNC(=N)N)NC(=O)[C@H](Cc2ccc(O)cc2)NC(=O)[C@@H]2CCCN2C(=O)[C@H]2CCCN2C(=O)[C@H](CCCCN)NC(=O)[C@H](CCCNC(N)=O)NC(=O)[C@H](Cc2ccc(O)cc2)NC(=O)[C@H](Cc2ccccc2)NC(=O)[C@H](Cc2ccc3ccccc3c2)NC(=O)[C@H](CCCNC(=N)N)NC(=O)[C@H](CCCNC(=N)N)NC(=O)[C@H]2CCCN2C(=O)CNC1=O
B8: Example 57 (peptide)
peptide: cyclo(YR[Cit]CRG[dP]RR[2Nal]CYRK[dP]P)
modifications: disulfide 4-11
SMILES: N=C(N)NCCC[C@@H]1NC(=O)[C@@H]2CSSC[C@H](NC(=O)[C@H](Cc3ccc4ccccc4c3)NC(=O)[C@H](CCCNC(=N)N)NC(=O)[C@H](CCCNC(=N)N)NC(=O)[C@H]3CCCN3C(=O)CNC1=O)C(=O)N[C@@H](Cc1ccc(O)cc1)C(=O)N[C@@H](CCCNC(=N)N)C(=O)N[C@@H](CCCCN)C(=O)N1CCC[C@@H]1C(=O)N1CCC[C@H]1C(=O)N[C@@H](Cc1ccc(O)cc1)C(=O)N[C@@H](CCCNC(=N)N)C(=O)N[C@@H](CCCNC(N)=O)C(=O)N2
B9: Example 55 (peptide)
peptide: cyclo(YR[Cit]CRG[dP]WR[2Nal]CYQK[dP]P)
modifications: disulfide 4-11
SMILES: N=C(N)NCCC[C@@H]1NC(=O)[C@@H]2CSSC[C@H](NC(=O)[C@H](Cc3ccc4ccccc4c3)NC(=O)[C@H](CCCNC(=N)N)NC(=O)[C@H](Cc3c[nH]c4ccccc34)NC(=O)[C@H]3CCCN3C(=O)CNC1=O)C(=O)N[C@@H](Cc1ccc(O)cc1)C(=O)N[C@@H](CCC(N)=O)C(=O)N[C@@H](CCCCN)C(=O)N1CCC[C@@H]1C(=O)N1CCC[C@H]1C(=O)N[C@@H](Cc1ccc(O)cc1)C(=O)N[C@@H](CCCNC(=N)N)C(=O)N[C@@H](CCCNC(N)=O)C(=O)N2
B10: Example 2 (peptide)
peptide: cyclo(YR[Cit]VR[dR]R[2Nal]VY[Cit]K[dP]P)
SMILES: CC(C)[C@@H]1NC(=O)[C@H](Cc2ccc3ccccc3c2)NC(=O)[C@H](CCCNC(=N)N)NC(=O)[C@@H](CCCNC(=N)N)NC(=O)[C@H](CCCNC(=N)N)NC(=O)[C@H](C(C)C)NC(=O)[C@H](CCCNC(N)=O)NC(=O)[C@H](CCCNC(=N)N)NC(=O)[C@H](Cc2ccc(O)cc2)NC(=O)[C@@H]2CCCN2C(=O)[C@H]2CCCN2C(=O)[C@H](CCCCN)NC(=O)[C@H](CCCNC(N)=O)NC(=O)[C@H](Cc2ccc(O)cc2)NC1=O
B11: Example 59 (peptide)
peptide: cyclo(YR[Cit]CRG[dP]RR[2Nal]CYYK[dP]P)
modifications: disulfide 4-11
SMILES: N=C(N)NCCC[C@@H]1NC(=O)[C@@H]2CSSC[C@H](NC(=O)[C@H](Cc3ccc4ccccc4c3)NC(=O)[C@H](CCCNC(=N)N)NC(=O)[C@H](CCCNC(=N)N)NC(=O)[C@H]3CCCN3C(=O)CNC1=O)C(=O)N[C@@H](Cc1ccc(O)cc1)C(=O)N[C@@H](Cc1ccc(O)cc1)C(=O)N[C@@H](CCCCN)C(=O)N1CCC[C@@H]1C(=O)N1CCC[C@H]1C(=O)N[C@@H](Cc1ccc(O)cc1)C(=O)N[C@@H](CCCNC(=N)N)C(=O)N[C@@H](CCCNC(N)=O)C(=O)N2
B12: Example 62 (peptide)
peptide: cyclo(QR[Cit]CRG[dP]RR[2Nal]CYQK[dP]P)
modifications: disulfide 4-11
SMILES: N=C(N)NCCC[C@@H]1NC(=O)[C@@H]2CSSC[C@H](NC(=O)[C@H](Cc3ccc4ccccc4c3)NC(=O)[C@H](CCCNC(=N)N)NC(=O)[C@H](CCCNC(=N)N)NC(=O)[C@H]3CCCN3C(=O)CNC1=O)C(=O)N[C@@H](Cc1ccc(O)cc1)C(=O)N[C@@H](CCC(N)=O)C(=O)N[C@@H](CCCCN)C(=O)N1CCC[C@@H]1C(=O)N1CCC[C@H]1C(=O)N[C@@H](CCC(N)=O)C(=O)N[C@@H](CCCNC(=N)N)C(=O)N[C@@H](CCCNC(N)=O)C(=O)N2
B13: Example 64 (peptide)
peptide: cyclo(HR[Cit]CRG[dP]RR[2Nal]CYQK[dP]P)
modifications: disulfide 4-11
SMILES: N=C(N)NCCC[C@@H]1NC(=O)[C@@H]2CSSC[C@H](NC(=O)[C@H](Cc3ccc4ccccc4c3)NC(=O)[C@H](CCCNC(=N)N)NC(=O)[C@H](CCCNC(=N)N)NC(=O)[C@H]3CCCN3C(=O)CNC1=O)C(=O)N[C@@H](Cc1ccc(O)cc1)C(=O)N[C@@H](CCC(N)=O)C(=O)N[C@@H](CCCCN)C(=O)N1CCC[C@@H]1C(=O)N1CCC[C@H]1C(=O)N[C@@H](Cc1c[nH]cn1)C(=O)N[C@@H](CCCNC(=N)N)C(=O)N[C@@H](CCCNC(N)=O)C(=O)N2
B14: Example 56 (peptide)
peptide: cyclo(YR[Cit]CRG[dP]TR[2Nal]CYQK[dP]P)
modifications: disulfide 4-11
SMILES: C[C@@H](O)[C@@H]1NC(=O)[C@H]2CCCN2C(=O)CNC(=O)[C@H](CCCNC(=N)N)NC(=O)[C@@H]2CSSC[C@H](NC(=O)[C@H](Cc3ccc4ccccc4c3)NC(=O)[C@H](CCCNC(=N)N)NC1=O)C(=O)N[C@@H](Cc1ccc(O)cc1)C(=O)N[C@@H](CCC(N)=O)C(=O)N[C@@H](CCCCN)C(=O)N1CCC[C@@H]1C(=O)N1CCC[C@H]1C(=O)N[C@@H](Cc1ccc(O)cc1)C(=O)N[C@@H](CCCNC(=N)N)C(=O)N[C@@H](CCCNC(N)=O)C(=O)N2

Bridges are numbered along the chain shown (N, C = ends). [ ]: non-standard residue; d: D form. 2Nal = N[C@@H](Cc1ccc2ccccc2c1)C(=O)O; Cit = NC(=O)NCCC[C@H](N)C(=O)O

Sequence of human CXCR4 (P61073 whole entry): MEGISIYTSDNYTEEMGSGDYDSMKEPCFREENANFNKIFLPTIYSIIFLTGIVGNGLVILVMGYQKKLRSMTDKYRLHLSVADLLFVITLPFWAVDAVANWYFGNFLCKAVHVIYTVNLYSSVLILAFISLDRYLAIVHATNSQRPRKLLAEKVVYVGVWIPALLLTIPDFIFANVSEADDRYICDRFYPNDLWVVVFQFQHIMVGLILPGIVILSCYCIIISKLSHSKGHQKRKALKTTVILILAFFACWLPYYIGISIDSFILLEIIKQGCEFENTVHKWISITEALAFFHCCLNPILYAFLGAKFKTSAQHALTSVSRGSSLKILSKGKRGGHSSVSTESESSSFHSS

This experiment has as its target human CXCR4 (human, UniProt P61073 1-352). Briefly: cell-based or functional assay.
Consider B1, for which the “IC50 (nM) Ca2+ assay (method 2)” value is 6.9 nM. For the molecule B2, the “IC50 (nM) Ca2+ assay (method 2)” value is 10.5 nM. In the case of B3, the “IC50 (nM) Ca2+ assay (method 2)” value came out at 4.1 nM. On the same count and under the same terms, then B4, with 2 nM. For the molecule B5, the “IC50 (nM) Ca2+ assay (method 1)” value stood at 57.8 nM. As for B6, the “IC50 (nM) Ca2+ assay (method 2)” value stood at 0.18 nM. For B7, the “IC50 (nM) Ca2+ assay (method 1)” value is 720 nM. Take B8: the “IC50 (nM) Ca2+ assay (method 2)” value is 4.2 nM. Regarding B9, the “IC50 (nM) Ca2+ assay (method 2)” value is 6.3 nM. As for B10, the “IC50 (nM) Ca2+ assay (method 1)” value was 2830 nM. Take B11: the “IC50 (nM) Ca2+ assay (method 2)” value is 7.8 nM. In the case of B12, the “IC50 (nM) Ca2+ assay (method 2)” value is 1.8 nM. Regarding B13, the “IC50 (nM) Ca2+ assay (method 2)” value amounted to 3.3 nM. With B14, the “IC50 (nM) Ca2+ assay (method 2)” value amounted to 0.74 nM.
